These results are taken from PMC7572813.

This test concerns the target B/Phuket/3073/2013 NA ectodomain (residues W80-L466) (influenza B virus B/Phuket/3073/2013). In words: cryo-EM structure.

The term stoichiometry N denotes the number of molecules, sites or subunits per partner or assembly. “B/Phuket/3073/2013 NA ectodomain (residues W80-L466) (domain or fragment)” displayed a stoichiometry N of 4.
